For 50 variants, abundance fitness results are on record in the Human Domainome abundance scans (Beltran et al. 2025).

± gives the uncertainty stated by the source.

The chains are these.
B1: Cyclin-F, residues 28 to 80; numbered along this chain, P41002 (parent)
chain: RNLTILSLPEDVLFHILKWLSVEDILAVRAVHSQLKDLVDNHASVWACASFQE

Variants of B1 are the subject of this data set. Put plainly: abundance fitness (aPCA) (normalised: wild type 0, dead -1); higher = more abundant; growth selection in yeast, the domain comes from the species named. Conditions: Homo sapiens.
Regarding RNLTILSLPEDVLFHILKWLSVEDILAVRAVHSQIKDLVDNHASVWACASFQE [L35I], the abundance fitness is -0.158 ± 0.22. With RNLTILSLPEDVLFHILKWLSVEDILAVRAVHSQLKDLVDNHASVWACASFQK [E53K] the figure was 0.081 ± 0.26. Under RNLTILSLPEDVLFHILKWLSVEDILAVPAVHSQLKDLVDNHASVWACASFQE [R29P] stands -0.716 ± 0.16; under RNLTILSLPEDVLFHHLKWLSVEDILAVRAVHSQLKDLVDNHASVWACASFQE [I16H], -1.02 ± 0.31. Under RNLTILSLPEDVLFHELKWLSVEDILAVRAVHSQLKDLVDNHASVWACASFQE [I16E] stands -0.773 ± 0.23; under RNLTILSLPEDVLFHITKWLSVEDILAVRAVHSQLKDLVDNHASVWACASFQE [L17T], -0.63 ± 0.18; under RNLTILSLPEDVLFHIHKWLSVEDILAVRAVHSQLKDLVDNHASVWACASFQE [L17H], -0.678 ± 0.46. Regarding RNLTILSLPEDVLFHILKWLSVEDILAVRAVHSQLVDLVDNHASVWACASFQE [K36V], the abundance fitness is -0.785 ± 0.12.

As for RNLTILSLPGDVLFHILKWLSVEDILAVRAVHSQLKDLVDNHASVWACASFQE [E10G], the abundance fitness was -0.566 ± 0.096. Under RNLTILSLPEDVLFHILKWLSVEDILAVRAVHSQLKDLVDNHASVWADASFQE [C48D] stands -0.14 ± 0.2; under RNLTILSLPEQVLFHILKWLSVEDILAVRAVHSQLKDLVDNHASVWACASFQE [D11Q], -0.049 ± 0.13; under RNLTILSLKEDVLFHILKWLSVEDILAVRAVHSQLKDLVDNHASVWACASFQE [P9K], -0.818 ± 0.15. Under RNLTILSLPEDVLFHILKWLSVEDILAVRAVHSQLKDLVDNHASVWACASMQE [F51M] stands 0.085 ± 0.11; under RNLTILSLPEDVLFHILKWLSVEDILAVRAVHSQLKDLVDNHASVWACASAQE [F51A], -0.138 ± 0.091; under RNLTICSLPEDVLFHILKWLSVEDILAVRAVHSQLKDLVDNHASVWACASFQE [L6C], -0.695 ± 0.13. Under RNLTILSLPEDVLFHILKWLSVEDILAVRAVHSQLKDLVDNHASTWACASFQE [V45T] stands 0.131 ± 0.13; under MNLTILSLPEDVLFHILKWLSVEDILAVRAVHSQLKDLVDNHASVWACASFQE [R1M], -0.359 ± 0.31. On to RNLTILSLPEDVLFHILKWLSVEDILAVRAVHSALKDLVDNHASVWACASFQE [Q34A], for which the abundance fitness is -0.111 ± 0.062. With RNLTILSLPEDVLFHILKWLSVEDILAVRAVHSRLKDLVDNHASVWACASFQE [Q34R] the figure was 0.109 ± 0.062; with RNLTILSLPEDVLFHILKWLSVEDILAVRAVHSQLKDLVDNHASVLACASFQE [W46L], -0.114 ± 0.087. Under RNLTILSLPEDVLFHILKWLSVEDILAVRAVHSQLKDLVDNHASVYACASFQE [W46Y] stands -0.469 ± 0.2. With RNLTILSLPEDVLFHILKWLSVEDILAVRAVHSQLKDLVDNHASVFACASFQE [W46F] the figure was -0.364 ± 0.15. Consider RNLTILSLPEDVLFHILKWLSVEDILAVRADHSQLKDLVDNHASVWACASFQE [V31D], for which the abundance fitness is -0.729 ± 0.2.

For RNLTILSLPEDVLFHILKWLSVEDILAVRACHSQLKDLVDNHASVWACASFQE [V31C], the abundance fitness is -0.056 ± 0.1. Under RNLTILSLPEDVLFHILKWLSVEDILAVRAVISQLKDLVDNHASVWACASFQE [H32I] stands -0.825 ± 0.23; under RNLTILSLPEDVLFHILFWLSVEDILAVRAVHSQLKDLVDNHASVWACASFQE [K18F], -0.573 ± 0.16. Under RNLTILSLPEDVLFHILKWLSREDILAVRAVHSQLKDLVDNHASVWACASFQE [V22R] stands -0.177 ± 0.067; under RNLTILSLPEDVLFHILKWLSIEDILAVRAVHSQLKDLVDNHASVWACASFQE [V22I], 0.005 ± 0.12; under RNLTILSLPEDVLFHILKWLSFEDILAVRAVHSQLKDLVDNHASVWACASFQE [V22F], -0.141 ± 0.1. RNLTWLSLPEDVLFHILKWLSVEDILAVRAVHSQLKDLVDNHASVWACASFQE [I5W]: the abundance fitness was -0.615 ± 0.15. Under RNLTILDLPEDVLFHILKWLSVEDILAVRAVHSQLKDLVDNHASVWACASFQE [S7D] stands 0.101 ± 0.13. Under RNLTILSLPEDQLFHILKWLSVEDILAVRAVHSQLKDLVDNHASVWACASFQE [V12Q] stands -0.747 ± 0.15; under RNLTILSLPEDCLFHILKWLSVEDILAVRAVHSQLKDLVDNHASVWACASFQE [V12C], -0.343 ± 0.28; under RNLTILSLPEDVLFHILKWLSVEDILAVRAVHSQLKDLVDNHALVWACASFQE [S44L], -0.499 ± 0.1.

For RNLTILSLPEDVMFHILKWLSVEDILAVRAVHSQLKDLVDNHASVWACASFQE [L13M], the abundance fitness was -0.138 ± 0.14.

Turning to RNLTILSLPEDVLFHILKWPSVEDILAVRAVHSQLKDLVDNHASVWACASFQE [L20P], the abundance fitness was -0.893 ± 0.27. With RNLTILSLPEDVLFHILKWLSVEDILAVRAVHSQLKQLVDNHASVWACASFQE [D37Q] the figure was 0.075 ± 0.17; with RNLTILSLPEDVLFHILKWLSVEDILAVRAVHSQLKDLVDNHASVWACASFRE [Q52R], -0.02 ± 0.1. Under RNLTILSLPEDVLFHILKWLSVEDILAVRAVHSQLKDLVDNHRSVWACASFQE [A43R] stands -0.273 ± 0.22; under RNPTILSLPEDVLFHILKWLSVEDILAVRAVHSQLKDLVDNHASVWACASFQE [L3P], -0.322 ± 0.13; under RNLTILSLPEDVLFHILKWLSVYDILAVRAVHSQLKDLVDNHASVWACASFQE [E23Y], -0.62 ± 0.2. With RNLTILSLPEDVLFHILKWLSVEDILAVRAVHSQLKDLVDNHASVWACALFQE [S50L] the figure was -0.485 ± 0.099; with RNLTILSLPEDVLFHILKWLSVEDILAVRAVHSQLKDFVDNHASVWACASFQE [L38F], 0.07 ± 0.13.

Turning to RNLTILSLPEDVLFHILKWLSVEDILAVRAVHSQLKDAVDNHASVWACASFQE [L38A], the abundance fitness was -0.075 ± 0.094. With RNLTILSLPEDVLFHILKWLKVEDILAVRAVHSQLKDLVDNHASVWACASFQE [S21K] the figure was -0.272 ± 0.17; with RNLTILSLPEDVLFHILKWLTVEDILAVRAVHSQLKDLVDNHASVWACASFQE [S21T], -0.126 ± 0.1; with RNLTILSLPEDVLFHILKWLSVEDILAVRAVHSQLKDLDDNHASVWACASFQE [V39D], -0.655 ± 0.21. With RNLTILSLPEDVLFHILKWLSVEDILAVRAVHSQLKDLMDNHASVWACASFQE [V39M] the figure was -0.781 ± 0.27; with RNLTILSLPEDVLFHILKWLSVEDILAVRAVHSQLKDLVDNHASVWACPSFQE [A49P], 0.126 ± 0.13; with RNLTILSLPEDVLFHILKWLSVEDILAVRAVHSQLKDLVDNHASVWACESFQE [A49E], -0.125 ± 0.14.
